In general, EC50 refers to the concentration needed to bring the measured effect to its halfway point. As a reminder, the IC50 is the concentration that inhibits the measured activity by half. For orientation: Kd means a measure of binding affinity in units of concentration.

Experimental findings from patent US20240228612A1 (SICHUAN KELUN BIOTECH BIOPHARMACEUTICAL, published 2024) are described below.

In test [1] the target is T1, human Nectin-4 protein (human, UniProt Q96NY8 32-349).
T1 construct: Purified protein used for coating in ELISA and as analyte in Octet; also called human Nectin-4 antigen
T1 sequence (looked up): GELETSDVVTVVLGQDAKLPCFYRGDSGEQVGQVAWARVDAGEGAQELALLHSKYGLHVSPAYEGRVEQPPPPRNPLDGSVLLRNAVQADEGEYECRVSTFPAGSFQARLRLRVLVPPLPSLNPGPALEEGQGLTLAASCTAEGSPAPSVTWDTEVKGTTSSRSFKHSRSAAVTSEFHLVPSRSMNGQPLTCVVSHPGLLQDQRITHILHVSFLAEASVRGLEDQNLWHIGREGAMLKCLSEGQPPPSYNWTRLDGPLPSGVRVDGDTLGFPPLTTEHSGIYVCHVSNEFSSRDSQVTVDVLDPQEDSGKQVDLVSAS
The test is described as follows: ELISA, coated antigen. An excerpt:
(§1) The affinity of anti-human Nectin-4 humanized monoclonal antibodies to Nectin-4 protein of different species was detected by ELISA.
(ELISA stands for enzyme-linked immunosorbent assay.)

For test [2], the target named is T2, cynomolgus monkey Nectin-4 protein (cynomolgus monkey).
T2 construct: also called cynomolgus monkey Nectin-4 antigen
Put plainly: ELISA, coated antigen.
Excerpt: as §1

For a further test, the target named is T3, human Nectin-1 antigen (human, UniProt Q15223 31-334, limits assumed).
T3 sequence (looked up): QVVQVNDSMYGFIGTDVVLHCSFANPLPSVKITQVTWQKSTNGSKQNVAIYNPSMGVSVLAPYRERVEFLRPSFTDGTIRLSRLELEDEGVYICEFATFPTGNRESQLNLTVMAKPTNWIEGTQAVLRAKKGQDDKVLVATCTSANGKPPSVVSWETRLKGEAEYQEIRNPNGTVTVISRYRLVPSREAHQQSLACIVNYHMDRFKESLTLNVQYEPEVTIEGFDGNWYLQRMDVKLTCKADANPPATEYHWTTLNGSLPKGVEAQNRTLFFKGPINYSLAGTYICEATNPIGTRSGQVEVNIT
The test is described as follows: ELISA, coated human Nectin-1, anti-human-HRP. The protocol: (§2) The Nectin family includes members of Nectin-1, Nectin-2, Nectin-3 and Nectin-4, and the members share a sequence identity of about 25%, but have similar structure and function. […] The specific steps were as follows: human Nectin-1, Nectin-2, Nectin-3 and Nectin-4 antigens were diluted to 1 μg/mL with CBS coating solution, coated on an ELISA plate at 100 μL per well, and standed overnight at 4° C.; the liquid in the well was discarded on the next day, and washing was performed once with 300 μL of PBS; 100 μL of PBS (containing 2% BSA) was added, and blocking was performed at 37° C. for 2 hours; 31HZ, 56HZ, 74HZ and Enfortumab antibodies were diluted with PBS (containing 2% BSA), 100 μL was taken and added to the corresponding well, incubated at 37° C. for 2 hours; washing was performed 3 times with 300 μL of PBST; HRP-labeled goat anti-human secondary antibody was diluted at a ratio of 1:10000 with PBS (containing 2% BSA), 100 μL was taken and added to the corresponding well, incubation was performed at 37° C. for 1 hour; washing was performed 5 times with 300 μL of PBST; 100 μL of TMB color development solution was added to the corresponding well, and color development was performed at room temperature for 5-20 minutes; 50 μL of 2N H₂SO₄ was added for stopping, a microplate reader was used for collecting readings at OD450 nm, and the data were imported into Graphpad Prism for curve fitting.

A further test addresses human Nectin-3 antigen (human, UniProt Q9NQS3 58-404, limits assumed). Put plainly: ELISA, coated human Nectin-3, anti-human-HRP. The method, then:
as §2

For test [3], the target named is T1, human Nectin-4 protein. Put plainly: competitive ELISA, coated Nectin-4; competitor biotin-labeled Nectin-1-hFc. The method, then:
Human Nectin-4 is linked to another Nectin-4 molecule or Nectin-1 molecule through the IgV domain. Because 31HZ, 56HZ and 74HZ all bind to the IgV domain of Nectin-4, the competitive activity of the three antibodies was detected by competitive ELISA. The specific steps were as follows: Nectin-4 protein was diluted to 2 μg/mL with CBS coating solution, 100 μL per well, and incubated at 37° C. for 2 hours; washing was performed once with 300 μL PBST, PBS (2% BSA) was then added, 100 μL per well, and incubation was performed at 37° C. for 2 hours; biotin-labeled Nectin-1-hFc was diluted with PBS (2% BSA) to 20 μg/mL; the antibody to be detected was diluted with PBS (2% BSA), wherein the dilution of 31HZ and 74HZ was started from 3.73 μg/mL, 3-fold dilution, and 9 concentration points, the dilution of 56HZ was started from 1.25 μg/mL, 2-fold dilution, and 10 concentration points; the above two diluted solutions were mixed well in equal volumes, and then added to the corresponding well at 100 μL/well, and incubation was performed at room temperature for 2 hours; washing was performed three times with 300 μL PBST; HRP-streptavidin was diluted with PBS (2% BSA) at a ratio of […], and added to the corresponding well at 100 μL/well, incubation was performed at room temperature for 1 hour; washing was performed five times with 300 μL of PBST; 100 μL of TMB was added to the corresponding well, color development was performed at room temperature for 10 minutes, and then terminated by adding 50 μL of 2N H₂SO₄, and a microplate reader was used for collecting readings at 450 nm.

The target of test [4] is T1, human Nectin-4 protein. Put plainly: BLI (Octet Fortebio), antibody on ProA sensor, Nectin-4 as analyte, 1:1 global fit. The protocol: (§3) The dynamic affinity of anti-human Nectin-4 humanized monoclonal antibodies was detected using Octet Fortebio®. The main steps comprised: firstly, the anti-human Nectin-4 humanized monoclonal antibody (concentration of 5 μg/mL) was immobilized on ProA sensor, then subjected to binding reaction with human or cynomolgus monkey Nectin-4 (gradiently diluted to 400 nM, 200 nM, 100 nM, 50 nM, 25 nM, 12.5 nM, 6.25 nM, 0 nM), and the anchored product in the solid phase obtained through fully reaction was subjected to dissociation reaction in PBST buffer. After the completion of the experiment, the results were analyzed by using Data Analysis 11.0 software at 1:1 mode to perform global fitting, thereby obtaining the affinity constant of antibody to antigen.
(In general: Biolayer interferometry detects binding as a change in optical thickness at a sensor tip.)

Test [5] has as its target T2, cynomolgus monkey Nectin-4 protein. The description is as above. The protocol:
as §3

human Nectin-3 antigen, sequence (Q9NQS3 58-404 limits assumed): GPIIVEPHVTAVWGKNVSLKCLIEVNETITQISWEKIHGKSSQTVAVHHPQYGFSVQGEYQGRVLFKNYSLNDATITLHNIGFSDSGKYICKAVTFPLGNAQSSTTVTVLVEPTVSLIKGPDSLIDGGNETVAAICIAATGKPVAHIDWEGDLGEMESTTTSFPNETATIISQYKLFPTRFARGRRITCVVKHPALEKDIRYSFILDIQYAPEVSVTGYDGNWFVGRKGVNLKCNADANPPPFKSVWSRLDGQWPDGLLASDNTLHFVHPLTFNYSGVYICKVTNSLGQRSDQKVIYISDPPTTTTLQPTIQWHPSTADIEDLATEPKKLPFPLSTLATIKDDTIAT

B1: anti-human Nectin-4 humanized monoclonal antibody 74HZ (antibody, human IgG1, kappa, V domains shown)
VH: QVQLVQSGAEVKKPGSSVKVSCKASGYTFINYWMNWVRQAPGQGLEWIGMIHPSDSATRLNQSFQGRVTLTVDKSTSTAYMELSSLRSEDTAVYYCARWGNFYTVNAWYYFDYWGQGTLVTVSS
VL: DIVITQSPDSLAVSLGERATINCKSSQTLLNSNTQKNYLAWYQQKPGQSPKLLFYFASTRESGVPDRFSGSGSGTDFTLTISSLQAEDVAVYFCQQHYSTPLTFGQGTKLEIKR
notes: Human IgG1 heavy chain constant region, human kappa light chain constant region; expressed in CHO-E cells
For the molecule B1, the EC50 came out at 8.34 ng/mL in the test with human Nectin-4 protein [1] and 6.73 ng/mL in test [2]. Further, the binding result with human Nectin-1 antigen and in the test with human Nectin-3 antigen was “no binding (tested: 10000 ng/mL)” each time. Moreover, the IC50 with human Nectin-4 protein [3] amounted to 27.2 ng/mL. Moreover, the Kd with human Nectin-4 protein [4] amounted to 0.0121 µM; in test [5] it was 0.00954 µM.

B2: anti-human Nectin-4 humanized monoclonal antibody 31HZ (antibody, human IgG1, kappa, V domains shown)
VH: QVQLVQSGAEVKKPGSSVKVSCKASGYTFTDYWMNWVRLAPGQGLEWIGMIHPSDSETRLNQKFQGRVTLTVDKSTSTAYMELSSLRSEDTAVYYCARWDFRIYYAMDYWGQGTLVTVSS
VL: DVVITQSPDSLAVSLGERATINCKSSQSLLNTNSQKNYLAWYQQKPGQSPKLLVYFASTRESGVPDRFSGSGSGTDFTLTISSLQAEDVAVYFCQQHYSTPLTFGGGTKVEIKR
notes: as for B1
Consider B2, for which the EC50 with human Nectin-4 protein [1] was 3.6 ng/mL; in test [2], 4.45 ng/mL. Moreover, the binding result in the test with human Nectin-1 antigen and in the test with human Nectin-3 antigen was “no binding (tested: 10000 ng/mL)” each time. The molecule also had a concentration for half-maximal inhibition (IC50) in the test with human Nectin-4 protein [3] of 27.6 ng/mL. Moreover, the Kd with human Nectin-4 protein [4] came to 0.0225 µM; in test [5], 0.0145 µM.

B3: anti-human Nectin-4 humanized monoclonal antibody 56HZ (antibody, human IgG1, kappa, V domains shown)
VH: QVQLQESGPGLVKPSQTLSLTCTVSGYFNSITSDYDWHWIRHHPGKGLEWMGYISFSGRTYYNPSLKSRVTISHDTSKNQFSLKLSSVTAADTAVYYCARGNYDGFDYWGQGTLVTVSS
VL: DIVLTQSPATLSLSPGERATLSCRASQNIGTSIHWYQHKPGQSPRLLIKFASESISGIPARFSGSGSGTDFTLTISSLEPEDFAVYYCQQSKSWPTYTFGGGTKVEIKR
notes: as for B1
Take B3: the 50% effective concentration (EC50) in the test with human Nectin-4 protein [1] came out at 9.48 ng/mL; in test [2] it was 9.85 ng/mL. Further, the binding result with human Nectin-1 antigen and with human Nectin-3 antigen was “no binding” throughout. For the same molecule, the IC50 with human Nectin-4 protein [3] came out at 26.9 ng/mL. In addition, the values for the Kd (with human Nectin-4 protein [4]; in test [5]) were 0.0196 µM and 0.0184 µM, respectively.
